Measurements taken from patent US20020031818A1, “Modification of Mdm2 activity” (priority 2000, published 2002).

Target: Mdm2 (Homo sapiens, UniProt Q00987)
Assay: In vivo sumoylation of Mdm2 in p53/Mdm2 double null cells
Assay type: cell-based
Design: expressed in transfected cells; host or cells: p53/Mdm2 double null cells
Settings: Flag-Mdm2, HA-SUMO, p19 wt 1.5 μg each; MG132
Protocol: FIGS. 10A-10D. A. Time dependent Mdm2 sumoylation in vitro. Bacterially expressed and purified GST-Mdm2 was subjected to in vitro sumoylation reaction in the presence of E1, Ubc9, and ^35S-Sumos. Reaction was terminated after 10,30,50 or 60 minutes, Proteins were separated on 8% gel, Commassie stained, dryed and exposed overnight (upper panel). Lower panel depicts Commassie blue staining of Mdm2 forms. B. A peptide corresponding to the Ubc-9 binding site on Mdm2 decreases Mdm2 in vitro sumoylation of Mdm2 in a time-dependent manner. (Upper part) The specific Ubc-9-binding site peptide or a nonspecific peptide was added to the reaction for the indicated time periods. […] The lower panel depicts a Coomassie staining visualizing relative amounts of sumoylated and non-sumoylated forms of purified GST-Mdm2. C. The Mdm2 sumoylation assay was carried out in the presence of Ubc-9-binding site peptide (mu9bs) or a nonspecific peptide ([…]) which were added to the reaction at the indicated concentrations. […] D. A peptide corresponding to the Ubc-9 binding site on Mdm2 decreases Mdm2 sumoylation in vivo. […] Immunoprecipitated Mdm2 levels were detected using 2A10 antibodies (top). […]
FIG. 13A-13E. […] (Left) Immunoprecipitated Mdm2 was detected using monoclonal Mdm2 antibodies (2A10, left). […]

Mdm2, sequence (Q00987 whole entry): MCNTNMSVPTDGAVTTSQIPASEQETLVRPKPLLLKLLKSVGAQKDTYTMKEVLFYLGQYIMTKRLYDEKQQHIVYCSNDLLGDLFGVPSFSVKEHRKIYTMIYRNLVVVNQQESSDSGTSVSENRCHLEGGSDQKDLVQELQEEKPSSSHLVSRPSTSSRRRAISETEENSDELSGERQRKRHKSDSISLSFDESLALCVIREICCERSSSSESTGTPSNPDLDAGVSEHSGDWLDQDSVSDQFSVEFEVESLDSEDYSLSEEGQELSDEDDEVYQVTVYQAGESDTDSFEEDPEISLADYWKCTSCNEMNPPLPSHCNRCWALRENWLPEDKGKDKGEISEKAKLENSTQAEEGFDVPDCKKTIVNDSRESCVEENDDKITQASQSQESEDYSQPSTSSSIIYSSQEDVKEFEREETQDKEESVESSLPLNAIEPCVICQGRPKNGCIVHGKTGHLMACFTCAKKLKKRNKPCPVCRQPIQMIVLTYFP

B1: p19^ARF: Mdm2-regulating protein; in vitro translated, bacculovirus-expressed or transfected (protein)
chain: MGRRFLVTVRIQRAGRPLQERVFLVKFVRSRRPRTASCALAFVNMLLRLERILRRGPHRNPGPGDDDGQRSRSSSSAQLRCRFELRGPHYLLPPGARRSAGRLPGHAGGAARVRGSAGCARCLGSPAARLGPRAGTSRHRAIFAFRWVLFVFRWVVFVYRWERRPDRRA
**Q.** For B1, which “Mdm2 sumoylation in Mdm2/p53-/- cells upon p19ARF co-expression” value is on record?
**A.** The value was “reduced the degree of Mdm2 sumoylation”.
